T1: recombinant cynomolgus TfR (90253-C07H, Sino Biological), biotinylated (cynomolgus monkey, UniProt Q5RDH6 89-760 (Pongo abelii entry), biotinylated with EZ-Link NHS-PEG4-Biotinylation Kit)
T1 construct: Bought protein; also called immobilized recombinant cynomolgus TfR
T1 chain: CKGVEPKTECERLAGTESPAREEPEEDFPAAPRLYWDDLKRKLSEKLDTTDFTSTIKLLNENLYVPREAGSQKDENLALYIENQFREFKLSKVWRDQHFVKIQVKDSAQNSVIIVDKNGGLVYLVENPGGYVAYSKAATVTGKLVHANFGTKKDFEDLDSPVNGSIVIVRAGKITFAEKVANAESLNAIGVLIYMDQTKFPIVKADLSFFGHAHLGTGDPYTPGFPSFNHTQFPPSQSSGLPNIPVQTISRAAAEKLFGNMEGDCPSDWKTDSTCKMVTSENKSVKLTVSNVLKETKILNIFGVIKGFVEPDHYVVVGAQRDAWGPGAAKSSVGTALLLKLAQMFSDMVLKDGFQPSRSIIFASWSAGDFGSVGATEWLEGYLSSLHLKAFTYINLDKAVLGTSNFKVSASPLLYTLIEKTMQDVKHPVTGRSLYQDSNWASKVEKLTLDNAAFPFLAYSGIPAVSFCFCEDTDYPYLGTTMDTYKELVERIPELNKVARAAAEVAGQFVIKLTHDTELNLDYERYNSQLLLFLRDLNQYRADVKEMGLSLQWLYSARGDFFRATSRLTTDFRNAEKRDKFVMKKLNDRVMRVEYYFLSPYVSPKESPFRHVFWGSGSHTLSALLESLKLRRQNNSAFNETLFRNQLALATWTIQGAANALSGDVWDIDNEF

T2: cynomolgus TfR overexpressed on CHO cells (cynomolgus monkey, UniProt Q5RDH6 1-760 (Pongo abelii entry))
T2 construct: construct is TfR followed by an HA tag and IRES-GFP; also called cynomolgus monkey TfR1; NHP TfR
T2 chain: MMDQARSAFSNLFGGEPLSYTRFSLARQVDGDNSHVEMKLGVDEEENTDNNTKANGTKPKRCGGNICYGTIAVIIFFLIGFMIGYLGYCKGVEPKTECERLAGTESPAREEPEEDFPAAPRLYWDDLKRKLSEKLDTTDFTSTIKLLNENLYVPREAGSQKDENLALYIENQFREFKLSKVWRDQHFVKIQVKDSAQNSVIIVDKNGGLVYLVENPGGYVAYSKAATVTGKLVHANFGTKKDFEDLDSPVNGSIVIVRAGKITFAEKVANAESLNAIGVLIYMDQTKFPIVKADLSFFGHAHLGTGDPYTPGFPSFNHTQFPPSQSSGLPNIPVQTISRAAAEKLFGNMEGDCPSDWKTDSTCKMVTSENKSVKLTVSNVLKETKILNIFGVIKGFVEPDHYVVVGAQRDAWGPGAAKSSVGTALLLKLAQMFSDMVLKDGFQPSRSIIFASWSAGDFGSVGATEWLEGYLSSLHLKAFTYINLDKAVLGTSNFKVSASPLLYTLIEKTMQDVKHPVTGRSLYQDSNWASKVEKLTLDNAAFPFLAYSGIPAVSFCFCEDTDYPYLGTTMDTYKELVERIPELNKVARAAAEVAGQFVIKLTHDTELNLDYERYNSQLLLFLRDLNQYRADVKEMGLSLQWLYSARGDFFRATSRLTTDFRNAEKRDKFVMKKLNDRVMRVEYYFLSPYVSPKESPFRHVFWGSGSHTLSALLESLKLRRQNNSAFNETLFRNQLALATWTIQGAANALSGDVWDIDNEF


Columns and labels:
[1] = target: T1, recombinant cynomolgus TfR (90253-C07H, …); experiment: SPR (Biacore T200), biotinylated cynomolgus TfR captured on an SA chip as ligand, VHH as analyte, single cycle kinetics, 1:1 binding model
From the text: Phage libraries generated after 4 biweekly immunizations of two different camelids, underwent two rounds of pannings on CHO cell lines overexpressing either cynomolgus TfR in the first round or human TfR in the second round. Output libraries were screened with flow cytometry to find binders to human TfR overexpressing cells (FIG. 1A). […] Binding kinetics to recombinant human and cynomolgus TfR were further characterized with Surface Plasmon Resonance (SPR).
Surface Plasmon Resonance (SPR) was used to measure the interaction between VHHs and human or cynomolgus TfR receptor. Human TfR (2474-TR, R&D Systems) and cynomolgus TfR (90253-C07H, Sino Biological) were biotinylated with the EZ-Link NHS-PEG4-Biotinylation Kit (ThermoFischer Scientific) according to the manufacturer instructions. The binding experiments were performed at 25° C. on a Biacore T200 instrument (Cytiva, Uppsala, Sweden) in HBS-EP+ buffer (10 mM HEPES, 150 mM NaCl, 3 mM EDTA and 0.05% v/v Surfactant P20). Biotinylated human TfR and cynomolgus TfR were captured on a SA sensor chip (Cytiva) at a density of around 250 RU. Increasing concentrations of VHHs were sequentially injected in one single cycle at a flow rate of 30 μl/min. The dissociation was monitored for 20 min. […] A reference flow was used as a control for non-specific binding and refractive index changes. Several buffer blanks were used for double referencing. Binding affinities (KD) and kinetic rate constants (kₒₙ, koff) were derived after fitting the experimental data to the 1:1 binding model with the Biacore T200 Evaluation Software 3.1 using the single cycle kinetic procedure. Each interaction was repeated a least three times.

[2] = target: T2, cynomolgus TfR overexpressed on CHO …; experiment: flow cytometry on CHO cells overexpressing cynomolgus TfR (CHO-cynoTfR), VHH detected with anti-FLAG-iFluor647; median Flag-i647 intensity in total GFP cells
Description: Output libraries were screened with flow cytometry to find binders to human TfR overexpressing cells (FIG. 1A). […] Binding kinetics to recombinant human and cynomolgus TfR were further characterized with Surface Plasmon Resonance (SPR).
Periplasmic extracts diluted 1:10 in PBS 2% FBS, or a dilution range of different VHH or bispecific antibody concentrations prepared in PBS 2% FBS, were incubated with 0.1 million CHO cells overexpressing either the human, cynomolgus or mouse TfR for 30 min at 4° C. As control for background binding, periplasmic extracts, VHHs or bispecific antibodies were also incubated with 0.1 million CHO cells overexpressing GFP. Binding of VHHs was next resolved by a second step 30 min incubation at 4° C. with an anti-FLAG-iFluor647 antibody (A01811, Genscript) diluted 1:500 for screening and 1:250 for validation assays, or with anti-human IgG Fc-Alexa Fluor647 antibody (410714, BioLegend) diluted 1:200. […] Cells were fixed with 4% paraformaldehyde before being analyzed. Flp-In™-CHO™ cells used as unstained control and single stain controls were used to determine the cut-off point between background fluorescence and positive populations. […] The data was acquired with an Attune Nxt flow cytometer (Invitrogen) and analyzed by FCS Express 7 Research Edition.

Binder | koff [1] | kon [1] | EC50 (read off the curve) [2]
BBB00515 (VHH, Lead VHH expressed in E. coli TG1 and purified by IMAC; detected with anti-FLAG antibody in flow cytometry; also called BBB00515 VHH; not shown: C-terminal 3xFlag/6xHis tag from expression vector pBDS119) VHH: QVQLQESGGGLVQAGGSLRLSCAASGSIFSINAMGWYRQAPGKQRELVAVITSGGSTIYADSVKGRFTISRDNAENTVYLQMNSLKPEDTAVYYCNAHVGLKVPTIQELSLGFGSWGQGTQVTVSS | 0.00942 s⁻¹ | 149000 M⁻¹ s⁻¹ | ~8 nM
BBB00533 (VHH, Lead VHH expressed in E. coli TG1 and purified by IMAC; detected with anti-FLAG antibody in flow cytometry; also called BBB00533 VHH; not shown: C-terminal 3xFlag/6xHis tag from expression vector pBDS119) VHH: QVQLQESGGGSVQPGGSLRLSCTASGRTFNYAMGWFRQAPGKNREFVATIDWKDGSSYYLDSVRGRFTIERDDAKNTVYLQMNSLKPEDAAVYTCAVGDGDYCSTYTCAAEVEYDYWGQGTQVTVSS | 0.0118 s⁻¹ | 115000 M⁻¹ s⁻¹ | ~40 nM
